# Laboratory results from the supplement of paper PMC9170038.
# System: MS2 coat protein
# Assay: apparent KD of MS2 coat protein; designed switch direction (-1 OFF switch, 1 ON switch): -1; higher = weaker reporter binding
# Procedure, shortened: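 Apparent KD, taken as the median over clusters for each design, was obtained by curve-fitting normalised cluster fluorescence. Designed RNA switches had been transcribed on Illumina chips by stalled E. coli RNA polymerase and titrated with SNAP-549-labelled MS2 coat protein, doubling from 0.7 or 1.5 nM to 3 µM.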
# [1] = Eterna round: R95, input ligand: FMN 200 uM
# [2] = Eterna round: R95, input ligand: microRNA oligo, concentration not stated
# [3] = Eterna round: R95, input ligand: none
# [4] = input ligand: microRNA oligo, concentration not stated
Sequence,apparent KD of MS2 coat protein [1],apparent KD of MS2 coat protein [2],apparent KD of MS2 coat protein [3],apparent KD of MS2 coat protein (input ligand: FMN 200 uM),apparent KD of MS2 coat protein [4],apparent KD of MS2 coat protein (input ligand: none)
AAAAAGACAGGAUAUACAUGAGGAUCACCCAUGUGAAACAAAAUAAAAUAAAAUAAAAGUAGAAGGGUCAAAAA [Exclusion 3 #2] (puzzle: Exclusion 3),33.8 nM,31.9 nM,31.7 nM,–,–,–
AAAAAGCGAGGAUAUACAGGAAAAGAAAAGAAAAGAAAAGCACAUGAGGAUCACCCAUGUAGAAGGCGCGAAAA [Exclusion 2 #3] (puzzle: Exclusion 2),26.1 nM,24.7 nM,20.8 nM,–,–,–
AAAACACAUGAGGAUCACCCAUGUGAGGAUAUGUUCAUUGUGAGCAAACUUAUGAUGAACAGAAGGCACAUAAA [JR_Exclusion1_Sub017] (puzzle: Exclusion 1),–,38.9 nM,–,–,–,–
"AAAACGUCAGGAUAUACAGAAGAGAUCACAAAAAAAAAAAAACAUGAGGAUCACCCAUGUAGAAGGGACAAAAA [Ex2 Malc#2] (Eterna round: R96, puzzle: Exclusion 2)",–,–,–,185 nM,81.2 nM,115 nM
"AAAACUAACACGAAAGUGUUAGAAUAAUAAGCUUGUGGUACAUGAGGAUCACCCAUGUCCUCAUAAGCUCGUCUUAU [Mat - Sensor v3 - Turn-off var 2 - D45] (puzzle: Sensor v3, turn-off variant 2)",28 nM,46.4 nM,25.8 nM,–,–,–
"AAAACUGGUGUUAGGAUAUUCCUAGGAAAGCUUGGGAAGAAGGGACAUGAGGAUCACCCAUGUCCAGUGAUCAG [Eternabot (Original) Solution 19] (Eterna round: R97, puzzle: Brourd's mod of Exclusion 4)",–,–,–,19.1 nM,–,21.6 nM
AAAAGAGUAGGAUAUCUGACGCGAAACAUGAGGAUCACCCAUGUAGGGCGGUCCUGCUUAAGAGAAGGGCUCUAAU [Arorxebile] (puzzle: Exclusion 5),155 nM,119 nM,164 nM,–,–,–
AAAAGCUCAGUCAGGAUAUGCAUUUGCACCGGCGAGCAGAAGGGACAUGAGGAUCACCCAUGUACGCGGCAGGG [Laaraor] (puzzle: Brourd's mod of Exclusion 4),80.8 nM,37.1 nM,59.9 nM,–,–,–
AAAAGGCAGCAGGAUAUAGUCACCAUCGGGUUGCUAGAAGGGCUAACAUGAGGAUCACCCAUGUGGGUGCAAAA [Soinsoan] (puzzle: Exclusion 6),578 nM,452 nM,667 nM,–,–,–
"AAAAUAAAGAUAGGAUAUGCAGUAUAGCAAGAUCCGGACAUGAGGAUCACCCAUGUACUUCGAAAGCAGAAGGAUCAAACAAAA [Zamale] (Eterna round: R96, puzzle: Exclusion NG 2)",–,–,–,30.3 nM,30 nM,26.6 nM
"AAACACUGAGGAUAUGCAUAACAACAAAGCCUCACGUGCCAACAUGAGGAUCACCCAUGUAGAAGGCAGUCCAA [Mod R3 Insanara 16 - Jieux - Exclusion 2] (Eterna round: R97, puzzle: Exclusion 2)",–,–,–,25 nM,–,30 nM
"AAACAGCAAGGAUAUACGGGCAGUGCUUAUCAUAUCAUACAACAUGAGGAUCACCCAUGUAGAAGGUGCAACAA [Ex2 #1] (Eterna round: R97, puzzle: Exclusion 2)",–,–,–,108 nM,–,39.1 nM
"AAACCUCACAACCGUUAAAACAUGAGGAUCACCCAUGUGCCGUAACGGCGCAUGGUCGAGCUAGGCUCGUCCAUGCA [Zamacelaso] (Eterna round: R96, puzzle: Sensor v2, turn-off variant)",–,–,–,12 nM,10.2 nM,15.4 nM
AAACUGCAUGUGAGGAUAUGCACCGACUAAACCGGGCAGAAGGCACAUGAGGAUCACCCAUGUCAUCCUAUUGC [Beederte] (puzzle: Brourd's mod of Exclusion 4),–,7.99 nM,–,–,–,–
AAAGAACAUGAGGAUCACCCAUGUGAGGAUAUGCGAAAACCGCUAACAAACCAGACGGGCAGAAGGCAUAUGGU [Leistequ] (puzzle: Exclusion 1),68.9 nM,39.1 nM,63.7 nM,–,–,–
"AAAGAAGAGAGAAAAUAACACAUGAGGAUCACCCAUGUGAGAAGAUGAGGGUGAUACAGGCUAUAUGCUCGUCUUAU (puzzle: Sensor v3, turn-off variant 1)",62.9 nM,350 nM,104 nM,–,–,–
AAAGAGCGAGGAUAUACAUGAGGAUCACCCAUGUGAAGAUGCAUGGUCUGAACGUCUGGUAGAAGGCGUAUGAA [Rebierce] (puzzle: Exclusion 3),–,119 nM,–,–,–,–
AAAGCGUGAGGAUAUGAGGCGCCGGGCCGGUUGGUGCGGAUUCAGAAGGCACAUGAGGAUCACCCAUGUCGGUA [Excls4-IV] (puzzle: Exclusion 4),–,37.2 nM,–,–,–,–

Sequence,apparent KD of MS2 coat protein [1],apparent KD of MS2 coat protein [2],apparent KD of MS2 coat protein [3],apparent KD of MS2 coat protein (input ligand: FMN 200 uM),apparent KD of MS2 coat protein [4],apparent KD of MS2 coat protein (input ligand: none)
AAAGGCUAAGGAUAUGCACACAUAAACAUGAGGAUCACCCAUGUGUUCCCAGCAACCAUAGCAGAAGGUAGCGAAA [Rarebeve] (puzzle: Exclusion 5),76.5 nM,70.1 nM,68.7 nM,–,–,–
"AAAGGGAAUGAGGAUAUCGUAUUGGAUAUAGUGCGAGAAGGCAUUACAUGAGGAUCACCCAUGUUUUGUUGGGA [JR_Ex6_Sub006] (Eterna round: R97, puzzle: Exclusion 6)",–,–,–,74.4 nM,–,33.9 nM
"AAAGUGUUAGGAUAUAGGCGCAGCCAGACGCAGGAAGCGUCCUAGAAGGAACAUGAGGAUCACCCAUGUGGGCG [Eternabot (Original) Solution 41] (Eterna round: R97, puzzle: Exclusion 4)",–,–,–,1180 nM,–,364 nM
"AAAUAACGAGGAUAUAGGGUCCGGAACAUGAGGAUCACCCAUGUAUUGGAAACAACGUGGUUAGAAGGCGUUGCCC [EX5 A.15] (Eterna round: R97, puzzle: Exclusion 5)",–,–,–,25.6 nM,–,28.7 nM
"AAAUAAUAGAUAAAAUAAAACAUGAGGAUCACCCAUGUAGGCAGAUGAGGGUGAAACAAGCUUUUUGCUCGUCUUAU (puzzle: Sensor v3, turn-off variant 1)",63.9 nM,477 nM,75.1 nM,–,–,–
"AAAUAAUAGAUAAAAUAAAACAUGAGGAUCACCCAUGUAGGCUGAUGAGGGUGAAACAAGCUUUUUGCUCGUCUUAU (puzzle: Sensor v3, turn-off variant 1)",154 nM,560 nM,197 nM,–,–,–
"AAAUACAAGUAAAGAUCCUACAUGAGGAUCACCCAUGUGCUCGUCUUGUAAAGUACUAUCACGAAAGUGAUAGUACU [Mat - Sensor v3 - turn-off var 1 - Eli Mod - D87] (puzzle: Sensor v3, turn-off variant 1)",45.3 nM,29.7 nM,47.7 nM,–,–,–
"AAAUACCGGUGAGGAUAUUUUUAAUAGAACUUUAUGAUAUACAUGAGGAUCACCCAUGUUACUUUAAAGAAGGCAUCGGAUAAA [Mat - Exclusion NG 2 - Mod of JL - D88] (Eterna round: R96, puzzle: Exclusion NG 2)",–,–,–,–,12.1 nM,–
"AAAUAGCAUGAGGAUAUCGAAUUAUAUAUAGUACGAGAAGGCAUGACAUGAGGAUCACCCAUGUUUUGUUGGGA [EX6 #1] (Eterna round: R97, puzzle: Exclusion 6)",–,–,–,124 nM,–,57.5 nM
"AAAUAGCUAGAGGAUAUUGGAUAGGAUUUAAUACGAGAAGGUUAGACAUGAGGAUCACCCAUGUUGUGUUGGGA [EX6 #17] (Eterna round: R97, puzzle: Exclusion 6)",–,–,–,51.3 nM,–,48.5 nM
"AAAUAGCUAGAGGAUAUUGGAUAGGAUUUACUACGAGAAGGUUAGACAUGAGGAUCACCCAUGUUGUGUUGGGA [EX6 #18] (Eterna round: R97, puzzle: Exclusion 6)",–,–,–,55.2 nM,–,53.4 nM
AAAUAGGCAGGAUAUACAUGAGGAUCACCCAUGUGCCUAUGAAAGGUAAUUUUGAAAGGUAGAAGGGCCUAAAA [ChP 13.04.2015 #4] (puzzle: Exclusion 3),–,10.1 nM,–,–,–,–
"AAAUCGGUAGAGGAUAUUGUACAGGAAACGGUGCAAGAAGGUUGCACAUGAGGAUCACCCAUGUUUAAUUGCGA [EX6 #50] (Eterna round: R97, puzzle: Exclusion 6)",–,–,–,33.9 nM,–,36.2 nM
"AAAUCGGUAGAGGAUAUUGUACAGGAAACGGUGCGAGAAGGCUACACAUGAGGAUCACCCAUGUUAAAUAGCGA [EX6 #55] (Eterna round: R97, puzzle: Exclusion 6)",–,–,–,17 nM,–,15.8 nM
"AAAUCGUGAGGAUAUCCAAUAUAUGACAUGAGGAUCACCCAUGUUUCCACUCGUACCUCCGGAGAAGGCACAGUUA [Ex5 #73] (Eterna round: R97, puzzle: Exclusion 5)",–,–,–,24.7 nM,–,26.3 nM
"AAAUGAAAGGCAGGAUAUCGUACUGAUCUUUGUCGAGAAGGGCCAGGGUCCCUCGGCUACAUGAGGAUCACCCAUGUUAAAAGA [Onabele] (Eterna round: R96, puzzle: Exclusion NG 1)",–,–,–,56.9 nM,29.4 nM,36.2 nM
"AAAUGCGAGCGAGGAUAUCAGAAAGGAAGUGUAUGAGAAGGCGCACCGCGGGUAUCCGGACAUGAGGAUCACCCAUGUAGGCUC [PowerStrip EXNG 1.28] (Eterna round: R96, puzzle: Exclusion NG 1)",–,–,–,23.2 nM,17.8 nM,29.5 nM
